Results from patent US20240228579A1 (Innovent, published 2024).

Assays:
[1] = target: T1, Human FcγRIIIA/CD16A (F176) protein (human, UniProt P08637 17-208); test: SPR (Biacore T200);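 also: His-tagged Fc receptors captured on an anti-His antibody chip, Fc-variant antibodies flowed as analyte, 60 s association and 60 s dissociation, fitted by 1:1 or steady-state model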
T1 construct: Bought, his-tagged; not shown: his tag

[2] = target: T2, Human FcγRIIIA/CD16A (V176) protein (human, UniProt P08637 17-208); test: SPR (Biacore T200);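 also: His-tagged Fc receptors captured on an anti-His antibody chip, Fc-variant antibodies flowed as analyte, 60 s association and 60 s dissociation, fitted by 1:1 or steady-state model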
T2 construct: Bought, his-tagged; not shown: his tag
T2 sequence (P08637 17-208 F176V limits assumed): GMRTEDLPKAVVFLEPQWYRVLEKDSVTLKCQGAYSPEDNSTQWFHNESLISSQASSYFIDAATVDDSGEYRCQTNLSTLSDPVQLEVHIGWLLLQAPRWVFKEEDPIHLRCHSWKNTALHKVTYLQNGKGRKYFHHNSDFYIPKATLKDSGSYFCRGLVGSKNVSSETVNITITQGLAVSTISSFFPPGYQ

[3] = target: T3, Human FcγRIIIB/CD16B (NA1) (human, UniProt O75015 17-200, limits assumed); test: SPR (Biacore T200);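 also: His-tagged Fc receptors captured on an anti-His antibody chip, Fc-variant antibodies flowed as analyte, 60 s association and 60 s dissociation, fitted by 1:1 or steady-state model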
T3 construct: Bought, his-tagged; not shown: his tag
T3 sequence (O75015 other isoform, or with tags, fused parts or gaps limits assumed): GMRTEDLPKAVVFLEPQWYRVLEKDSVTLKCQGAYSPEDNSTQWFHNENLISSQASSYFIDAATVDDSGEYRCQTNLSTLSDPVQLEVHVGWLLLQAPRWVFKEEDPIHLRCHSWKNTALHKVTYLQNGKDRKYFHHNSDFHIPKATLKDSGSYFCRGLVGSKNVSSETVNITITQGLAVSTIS

[4] = target: T4, Human FcγRIIIB/CD16B (NA2) (human, UniProt O75015 17-200, limits assumed); test: SPR (Biacore T200);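 also: His-tagged Fc receptors captured on an anti-His antibody chip, Fc-variant antibodies flowed as analyte, 60 s association and 60 s dissociation, fitted by 1:1 or steady-state model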
T4 construct: Bought, his-tagged; not shown: his tag
T4 sequence (O75015 17-200 N65S limits assumed): as the sequence (O75015 other isoform, or with tags, fused parts or gaps limits assumed) above, with R20S, N49S, D66N, V90I counted along it

[5] = target: T5, Human CD32A/FCGR2A protein (167his) (human, UniProt P12318 34-218, limits assumed); test: SPR (Biacore T200)
T5 construct: Bought, his-tagged; also called CD32A (H167); CD32A H167; not shown: his tag
T5 sequence (looked up): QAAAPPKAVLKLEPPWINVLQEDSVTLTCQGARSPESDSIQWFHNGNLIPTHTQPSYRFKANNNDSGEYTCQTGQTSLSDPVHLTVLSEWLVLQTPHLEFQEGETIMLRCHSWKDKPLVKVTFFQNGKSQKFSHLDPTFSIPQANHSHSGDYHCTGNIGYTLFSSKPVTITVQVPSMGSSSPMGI

[6] = target: T6, Human CD32A/FCGR2A protein (167Arg) (human, UniProt P12318 34-218, limits assumed); test: SPR (Biacore T200)
T6 construct: Bought, his-tagged; also called CD32A (R167); CD32A R167; not shown: his tag
T6 sequence (looked up): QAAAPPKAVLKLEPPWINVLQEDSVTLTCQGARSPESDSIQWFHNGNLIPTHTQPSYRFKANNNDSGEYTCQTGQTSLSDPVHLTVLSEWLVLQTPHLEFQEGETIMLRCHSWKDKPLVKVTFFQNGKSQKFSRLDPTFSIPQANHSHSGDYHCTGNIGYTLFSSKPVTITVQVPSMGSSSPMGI

[7] = target: T7, Human CD32B/FCGR2B protein (human, UniProt P31994 43-217, limits assumed); test: SPR (Biacore T200)
T7 construct: Bought, his-tagged; also called FcγRIIb; not shown: his tag
T7 sequence (looked up): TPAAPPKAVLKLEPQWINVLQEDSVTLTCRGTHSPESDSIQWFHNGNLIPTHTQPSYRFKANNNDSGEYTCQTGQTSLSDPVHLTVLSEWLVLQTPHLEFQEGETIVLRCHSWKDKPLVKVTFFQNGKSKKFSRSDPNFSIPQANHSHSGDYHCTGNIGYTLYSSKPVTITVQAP

[8] = target: T8, Human CD64/FCGR1A protein (human, UniProt P12314 16-288, limits assumed); test: SPR (Biacore T200)
T8 construct: Bought, his-tagged; also called FcγRI; not shown: his tag
T8 sequence (P12314 16-288 limits assumed): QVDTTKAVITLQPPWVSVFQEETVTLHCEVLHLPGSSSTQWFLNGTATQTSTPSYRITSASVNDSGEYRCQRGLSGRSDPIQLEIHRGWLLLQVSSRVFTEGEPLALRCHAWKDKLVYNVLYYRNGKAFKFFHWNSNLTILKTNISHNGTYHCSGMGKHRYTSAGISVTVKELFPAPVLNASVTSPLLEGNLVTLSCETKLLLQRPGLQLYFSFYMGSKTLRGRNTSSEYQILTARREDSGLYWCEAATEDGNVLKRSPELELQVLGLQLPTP

[9] = target: T9, Claudin18.2 (cp0007, Genscript) (UniProt P56856-2 1-261, limits assumed); test: BLI (Octet), antibody on AHC sensor, Claudin18.2 100 nM
T9 construct: Bought antigen used in BLI; also called Claudin18.2 antigen; the antigen
T9 sequence (looked up): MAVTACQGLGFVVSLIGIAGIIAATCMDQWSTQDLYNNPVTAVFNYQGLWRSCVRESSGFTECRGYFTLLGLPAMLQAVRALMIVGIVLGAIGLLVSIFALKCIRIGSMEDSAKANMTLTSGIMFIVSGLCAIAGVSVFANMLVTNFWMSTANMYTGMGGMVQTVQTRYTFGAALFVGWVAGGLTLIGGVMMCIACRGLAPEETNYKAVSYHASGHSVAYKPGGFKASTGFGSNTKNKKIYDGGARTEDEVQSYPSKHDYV
Procedure: The antibody and Claudin18.2 (cp0007, Genscript) were diluted to 100 nM, respectively.
Detection was conducted using Fortebio Octet Red96e, and the sensors were arranged according to the positions of the samples. […] After the experiment was completed, KD values were analyzed using ForteBio Octet analysis software.

human C1q [10] = target: T10, human C1q (human, UniProt P02745 23-245; P02746 28-253; P02747 29-245); test: BLI (Octet), biotinylated antibody on SA sensor, C1q 40 nM
T10 construct: Bought C1q (Complement Technology); also called C1q antigen
T10 sequence (P02745 23-245 limits assumed, chain 1 of 3): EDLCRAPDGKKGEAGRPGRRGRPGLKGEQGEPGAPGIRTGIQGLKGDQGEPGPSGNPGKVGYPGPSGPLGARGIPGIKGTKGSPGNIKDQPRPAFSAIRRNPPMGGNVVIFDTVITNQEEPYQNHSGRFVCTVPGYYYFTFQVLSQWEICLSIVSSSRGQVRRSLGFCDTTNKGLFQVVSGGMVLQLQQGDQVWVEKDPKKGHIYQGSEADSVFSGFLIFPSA
T10 sequence (P02746 28-253 limits assumed, chain 2 of 3): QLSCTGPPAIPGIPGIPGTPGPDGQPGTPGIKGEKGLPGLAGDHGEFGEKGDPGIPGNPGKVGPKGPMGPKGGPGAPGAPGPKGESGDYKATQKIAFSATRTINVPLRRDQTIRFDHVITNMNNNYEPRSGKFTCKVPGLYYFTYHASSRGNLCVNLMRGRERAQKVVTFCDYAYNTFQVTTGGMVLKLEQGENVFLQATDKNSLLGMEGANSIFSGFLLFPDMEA
T10 sequence (P02747 29-245 limits assumed, chain 3 of 3): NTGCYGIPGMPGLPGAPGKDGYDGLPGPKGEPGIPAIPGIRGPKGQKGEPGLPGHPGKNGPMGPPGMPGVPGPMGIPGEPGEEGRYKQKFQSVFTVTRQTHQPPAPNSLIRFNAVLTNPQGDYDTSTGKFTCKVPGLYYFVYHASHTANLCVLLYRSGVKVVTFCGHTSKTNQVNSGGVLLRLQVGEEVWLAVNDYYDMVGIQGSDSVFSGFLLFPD
Procedure: (§1) The antibody was diluted to approximately 100 nM, and C1q (Δ099, Complement Technology) was diluted to 40 nM.
(§2) Detection was conducted using Fortebio Octet Red96e, and the sensors were arranged according to the positions of the samples. […] After the experiment was completed, KD values were analyzed using ForteBio Octet analysis software, the coordinate axis data were derived, and Graphpad Prism 8 software was used for plotting.

[11] = target: T11, Human FcRn/FCGRT & B2M heterodimeric protein (human, UniProt P55899 24-297; P61769 21-119); test: SPR (Biacore T200), FcRn captured, antibody in flow, pH 6.0; pH 6.0
T11 construct: Bought heterodimer with His and Strep II tags
T11 sequence (P55899 24-297 limits assumed, chain 1 of 2): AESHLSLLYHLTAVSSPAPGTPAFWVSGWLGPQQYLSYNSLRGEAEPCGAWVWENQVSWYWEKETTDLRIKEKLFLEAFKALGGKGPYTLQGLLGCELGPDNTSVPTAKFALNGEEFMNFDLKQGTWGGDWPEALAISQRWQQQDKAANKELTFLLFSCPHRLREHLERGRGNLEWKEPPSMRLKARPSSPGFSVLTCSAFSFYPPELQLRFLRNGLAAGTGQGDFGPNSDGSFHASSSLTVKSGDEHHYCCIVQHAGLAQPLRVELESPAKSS
T11 sequence (P61769 21-119 limits assumed, chain 2 of 2): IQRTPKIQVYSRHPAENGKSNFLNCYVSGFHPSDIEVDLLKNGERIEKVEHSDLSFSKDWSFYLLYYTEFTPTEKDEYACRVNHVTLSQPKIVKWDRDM
Source text: The specific procedures were as follows: Each of FcγR and FcRn proteins (for information of each Fc receptor, see Table 2 below) containing a histidine tag was captured to the chip surface to which anti-histidine antibodies were coupled, and the binding and dissociation between the proteins on the chip surface and antibodies in the mobile phase were detected to obtain affinity and kinetic constants.
Affinity assay: Each cycle included capture of the receptor, binding of a certain concentration of the antibody carrying the Fc region mutation of the present application, and regeneration of the chip. […] In each cycle, the antibody mutant solution flowed over the chip surface at a flow rate of 30 μL/min, with the binding time of 60 s and the dissociation time of 60 s. […] The obtained data were analyzed using Biacore T200 analysis software (version number 3.1) and using an analysis 1:1 binding or homeostasis analysis model to obtain the corresponding results.

human C1q [12] = target: T10, human C1q; test: BLI (Octet), biotinylated antibody on SA sensor
Procedure: as §1, §2

T1 sequence (P08637 17-208 limits assumed): as the sequence (P08637 17-208 F176V limits assumed) above, with V160F counted along it

Row | Binder | binding result [1] | binding result [2] | binding result [3] | binding result [4] | binding result [5] | binding result [6] | binding result [7] | binding result [8] | Kd [9] [nM] | Response [9] [nm] | koff [9] [s⁻¹] | kon [9] [M⁻¹ s⁻¹] | Response (human C1q [10]) [nm] | Kd [11] [nM] | binding result (human C1q [12])
1 | Fcmut-07 (antibody, human IgG1, kappa, L234A L235A, IgG1-mut of Fcmut-01: L234A + L235A + deletion of 329 + G at 330 (EU index)) heavy: QVQLVQSGAEVKKPGSSVKVSCKASGYSFSSYNIHWVRQAPGQGLEWMGYIAPFQGDSRYNQKFKGRVTITADKSTSTAYMELSSLRSEDTAVYYCARLNRGNSLDYWGQGTLVTVSSASTKGPSVFPLAPSSKSTSGGTAALGCLVKDYFPEPVTVSWNSGALTSGVHTFPAVLQSSGLYSLSSVVTVPSSSLGTQTYICNVNHKPSNTKVDKKVEPKSCDKTHTCPPCPAPEAAGGPSVFLFPPKPKDTLMISRTPEVTCVVVDVSHEDPEVKFNWYVDGVEVHNAKTKPREEQYNSTYRVVSVLTVLHQDWLNGKEYKCKVSNKALGPIEKTISKAKGQPREPQVYTLPPSREEMTKNQVSLTCLVKGFYPSDIAVEWESNGQPENNYKTTPPVLDSDGSFFLYSKLTVDKSRWQQGNVFSCSVMHEALHNHYTQKSLSLSPGK light: not shown | no binding (tested: 400 nM) | no binding (tested: 400 nM) | no binding (tested: 400 nM) | no binding (tested: 400 nM) | no binding (tested: 400 nM) | no binding (tested: 400 nM) | no binding (tested: 400 nM) | no binding (tested: 400 nM) | 2.47 | 0.154 | 0.0002 | 80900 | -0.0134 | 374 | 
2 | Fcmut-08 (antibody, human IgG1, kappa, L234A L235A, IgG1-mut of Fcmut-01: L234A + L235A + deletion of 329 and 330 (EU index); also called Fcmut-8) heavy: QVQLVQSGAEVKKPGSSVKVSCKASGYSFSSYNIHWVRQAPGQGLEWMGYIAPFQGDSRYNQKFKGRVTITADKSTSTAYMELSSLRSEDTAVYYCARLNRGNSLDYWGQGTLVTVSSASTKGPSVFPLAPSSKSTSGGTAALGCLVKDYFPEPVTVSWNSGALTSGVHTFPAVLQSSGLYSLSSVVTVPSSSLGTQTYICNVNHKPSNTKVDKKVEPKSCDKTHTCPPCPAPEAAGGPSVFLFPPKPKDTLMISRTPEVTCVVVDVSHEDPEVKFNWYVDGVEVHNAKTKPREEQYNSTYRVVSVLTVLHQDWLNGKEYKCKVSNKALPIEKTISKAKGQPREPQVYTLPPSREEMTKNQVSLTCLVKGFYPSDIAVEWESNGQPENNYKTTPPVLDSDGSFFLYSKLTVDKSRWQQGNVFSCSVMHEALHNHYTQKSLSLSPGK light: not shown | no binding (tested: 400 nM) | no binding (tested: 400 nM) | no binding (tested: 400 nM) | no binding (tested: 400 nM) | no binding (tested: 400 nM) | no binding (tested: 400 nM) | no binding (tested: 400 nM) | no binding (tested: 400 nM) | 2.41 | 0.152 | 0.0002 | 82900 | 0.0004 | 402 | no binding (tested: C1q 40 nM)
